Measurements: PMC6169833

B1: Nup153-N wild type (1- to 608-amino-acid N-terminal construct of Nup153), C-terminally Flag-tagged [human] / endogenous Nup107 [human (endogenous in HEK293T)] (parent)
chain 1: MASGAGGVGGGGGGKIRTRRCHQGPIKPYQQGRQQHQGILSRVTESVKNIVPGWLQRYFNKNEDVCSCSTDTSEVPRWPENKEDHLVYADEESSNITDGRITPEPAVSNTEEPSTTSTASNYPDVLTRPSLHRSHLNFSMLESPALHCQPSTSSAFPIGSSGFSLVKEIKDSTSQHDDDNISTTSGFSSRASDKDITVSKNTSLPPLWSPEAERSHSLSQHTATSSKKPAFNLSAFGTLSPSLGNSSILKTSQLGDSPFYPGKTTYGGAAAAVRQSKLRNTPYQAPVRRQMKAKQLSAQSYGVTSSTARRILQSLEKMSSPLADAKRIPSIVSSPLNSPLDRSGIDITDFQAKREKVDSQYPPVQRLMTPKPVSIATNRSVYFKPSLTPSGEFRKTNQRIDNKCSTGYEKNMTPGQNREQRESGFSYPNFSLPAANGLSSGVGGGGGKMRRERTRFVASKPLEEEEMEVPVLPKISLPITSSSLPTFNFSSPEITTSSPSPINSSQALTNKVQMTSPSSTGSPMFKFSSPIVKSTEANVLPPSSIGFTFSVPVAKTAELSGSSSTLEPIISSSAHHVTTVNSTNCKKTPPEDCEGPFRPAEILKEGSV
chain 2: MDRSGFGEISSPVIREAEVTRTARKQSAQKRVLLQASQDENFGNTTPRNQVIPRTPSSFRQPFTPTSRSLLRQPDISCILGTGGKSPRLTQSSGFFGNLSMVTNLDDSNWAAAFSSQRSGLFTNTEPHSITEDVTISAVMLREDDPGEAASMSMFSDFLQSFLKHSSSTVFDLVEEYENICGSQVNILSKIVSRATPGLQKFSKTASMLWLLQQEMVTWRLLASLYRDRIQSALEEESVFAVTAVNASEKTVVEALFQRDSLVRQSQLVVDWLESIAKDEIGEFSDNIEFYAKSVYWENTLHTLKQRQLTSYVGSVRPLVTELDPDAPIRQKMPLDDLDREDEVRLLKYLFTLIRAGMTEEAQRLCKRCGQAWRAATLEGWKLYHDPNVNGGTELEPVEGNPYRRIWKISCWRMAEDELFNRYERAIYAALSGNLKQLLPVCDTWEDTVWAYFRVMVDSLVEQEIQTSVATLDETEELPREYLGANWTLEKVFEELQATDKKRVLEENQEHYHIVQKFLILGDIDGLMDEFSKWLSKSRNNLPGHLLRFMTHLILFFRTLGLQTKEEVSIEVLKTYIQLLIREKHTNLIAFYTCHLPQDLAVAQYALFLESVTEFEQRHHCLELAKEADLDVATITKTVVENIRKKDNGEFSHHDLAPALDTGTTEEDRLKIDVIDWLVFDPAQRAEALKQGNAIMRKFLASKKHEAAKEVFVKIPQDSIAEIYNQCEEQGMESPLPAEDDNAIREHLCIRAYLEAHETFNEWFKHMNSVPQKPALIPQPTFTEKVAHEHKEKKYEMDFGIWKGHLDALTADVKEKMYNVLLFVDGGWMVDVREDAKEDHERTHQMVLLRKLCLPMLCFLLHTILHSTGQYQECLQLADMVSSERHKLYLVFSKEELRKLLQKLRESSLMLLDQGLDPLGYEIQL

Variants of: B1
Experiment: Flag immunoprecipitation and Western blotting, quantified with ImageJ
Settings: HEK293T cells transfected with Nup153-N constructs, harvested 72 h after transfection, parent: 1, read off a plot

ratio to parent | Variant
0.57 | chain 1 S516E S518E S519E S522E
